Here are results for one molecule from paper PMC12262184, “Structural insights into transcriptional regulation by the helicase RECQL5” (Nature Structural & Molecular Biology, 2025).

The target of the experiment is RPB1 subunit of human RNA polymerase II (human (endogenous in HeLa), UniProt P24928 1-1970). In words: cryo-EM structure; EC_(REC-Apo): Pol II on anti-RPB1-protein G resin incubated with tenfold excess of nucleic acid scaffold, then tenfold excess of RECQL5_(1–620)-D157A, no nucleotide; eluted with RPB1 triheptapeptide repeat; crosslinked with 0.02% glutaraldehyde; graphene oxide grids. Particulars: both partners purified.

B1: RECQL5_(1–620)-D157A (domain or fragment)
chain: MSSHHTTFPFDPERRVRSTLKKVFGFDSFKTPLQESATMAVVKGNKDVFVCMPTGAGKSLCYQLPALLAKGITIVVSPLIALIQDQVDHLLTLKVRVSSLNSKLSAQERKELLADLEREKPQTKILYITPEMAASSSFQPTLNSLVSRHLLSYLVVAEAHCVSQWGHDFRPDYLRLGALRSRLGHAPCVALTATATPQVQEDVFAALHLKKPVAIFKTPCFRANLFYDVQFKELISDPYGNLKDFCLKALGQEADKGLSGCGIVYCRTREACEQLAIELSCRGVNAKAYHAGLKASERTLVQNDWMEEKVPVIVATISFGMGVDKANVRFVAHWNIAKSMAGYYQESGRAGRDGKPSWCRLYYSRNDRDQVSFLIRKEVAKLQEKRGNKASDKATIMAFDALVTFCEELGCRHAAIAKYFGDALPACAKGCDHCQNPTAVRRRLEALERSSSWSKTCIGPSQGNGFDPELYEGGRKGYGDFSRYDEGSGGSGDEGRDEAHKREWNLFYQKQMQLRKGKDPKIEEFVPPDENCPLKEASSRRIPRLTVKAREHCLRLLEEALSSNRQSTRTADEADLRAKAVELEHETFRNAKVANLYKASVLKKVADIHRASKDGQPYDM
notes: RECQL5 helicase, human, residues 1-620 (helicase D1 and D2 subdomains, RQC domain, IRI module with αN helix and KIX domain); lacks the unstructured region and the SRI domain; The purification is described for GST-tagged RECQL5_(1–620) in general; Used without nucleotide in EC_(REC-Apo); also called truncated RECQL5 construct; source: E. coli BL21-CodonPlus (DE3)-RIL, purified (glutathione …)
Turning to B1, the binding result is given as “binds”.
